Results reported in the supplement of paper PMC11780869.

Test system: Bacillus subtilis
Assay: cleaved RNA product abundance (RNA/gDNA barcode ratio) relative to median wild-type variant (ratio to wild type); higher = more accumulation of the downstream cleavage product
Settings: cleavage site: cggR-gapA (positions -7 to +36 mutated)
Outline: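 Cleaved product abundance is expressed as the RNA:gDNA barcode ratio per construct, scaled to the median construct carrying the unmutated site. The constructs were barcoded, mutagenized RNase Y cleavage-site windows in truncated aprE or tetM reporter mRNAs integrated into the B. subtilis chromosome. Cultures grew in LB at 37°C from OD600 0.0003 to 0.3 before cleaved RNA was gel-selected and barcode-sequenced.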

[1] = experiment (reporter, strain, medium): exp 4a: truncated aprE reporter, strain BJT201 with 2% xylose (RNase J1 expressed)
[2] = experiment (reporter, strain, medium): exp 2b: truncated aprE reporter, strain BJT200

Sequence	cleaved RNA product abundance [1]	cleaved RNA product abundance [2]	cleaved RNA product abundance (experiment (reporter, strain, medium): exp 6: tetM reporter, strain 168)
ACAGACGAAGGAGCCGCAAAGAAGTTATTAAGGGATAAATAATCTCTCAATATAAATATCTCTCACTTATTTAAA	0.355	–	–
ACAGACGAAGGAGCCGCAAAGAAGTTATTAAGGGATAAATAATGCCTCAATATAAATATCTCTCACTTATTTAAA	0.0991	–	–
ACAGACGAAGGAGCCGCAAAGAAGTTATTAAGGGATAAATAATTCCTCAATATAAATATCTCTCACTTATTTAAA	0.294	–	–
ACAGACGAAGGAGCCGCAAAGAAGTTATTAAGGGATAAATACTCCCTCAATATAAATATCTCTCACTTATTTAAA	0.534	0.674	–
ACAGACGAAGGAGCCGCAAAGAAGTTATTAAGGGATAAATATTCCCTCAATATAAATATCTCTCACTTATTTAAA	1.01	0.755	–
ACAGACGAAGGAGCCGCAAAGAAGTTATTAAGGGATAAATCATCCCTCAATATAAATATCTCTCACTTATTTAAA	0.818	–	–
ACAGACGAAGGAGCCGCAAAGAAGTTATTAAGGGATAAATGATCCCTCAATATAAATATCTCTCACTTATTTAAA	0.455	–	–
ACAGACGAAGGAGCCGCAAAGAAGTTATTAAGGGATAAATTATCCCTCAATATAAATATCTCTCACTTATTTAAA	1.03	1.07	–
ACAGACGAAGGAGCCGCAAAGAAGTTATTAAGGGATAACTAATCCCTCAATATAAATATCTCTCACTTATTTAAA	0.57	–	–
ACAGACGAAGGAGCCGCAAAGAAGTTATTAAGGGATAAGTAATCCCTCAATATAAATATCTCTCACTTATTTAAA	0.785	0.555	–
ACAGACGAAGGAGCCGCAAAGAAGTTATTAAGGGATAATTAATCCCTCAATATAAATATCTCTCACTTATTTAAA	0.759	1.13	–
ACAGACGAAGGAGCCGCAAAGAAGTTATTAAGGGATAGATAATCCCTCAATATAAATATCTCTCACTTATTTAAA	0.791	–	–
ACAGACGAAGGAGCCGCAAAGAAGTTATTAAGGGATATATAATCCCTCAATATAAATATCTCTCACTTATTTAAA	0.738	–	–
ACAGACGAAGGAGCCGCAAAGAAGTTATTAAGGGATCAAAAATCCCTCAATATAAATATCTCTCACTTATTTAAA	1.17	0.804	–
ACAGACGAAGGAGCCGCAAAGAAGTTATTAAGGGATCAACAATCCCTCAATATAAATATCTCTCACTTATTTAAA	0.962	1	–
ACAGACGAAGGAGCCGCAAAGAAGTTATTAAGGGATCAATAAACCCTCAATATAAATATCTCTCACTTATTTAAA	0.429	0.518	–
ACAGACGAAGGAGCCGCAAAGAAGTTATTAAGGGATCAATAACCCCTCAATATAAATATCTCTCACTTATTTAAA	0.561	–	–
ACAGACGAAGGAGCCGCAAAGAAGTTATTAAGGGATCAATAATACCTAAATATAAATATCTCTCACTTATTTAAA	0.0917	–	–
ACAGACGAAGGAGCCGCAAAGAAGTTATTAAGGGATCAATAATACCTCAATATAAATATCTCTCACTTATTTAAA	0.146	–	–
ACAGACGAAGGAGCCGCAAAGAAGTTATTAAGGGATCAATAATCACTCAATATAAATATCTCTCACTTATTTAAA	0.0833	0.0917	–

Sequence	cleaved RNA product abundance [1]	cleaved RNA product abundance [2]	cleaved RNA product abundance (experiment (reporter, strain, medium): exp 6: tetM reporter, strain 168)
ACAGACGAAGGAGCCGCAAAGAAGTTATTAAGGGATCAATAATCCATCAATATAAATATCTCTCACTTATTTAAA	0.312	–	–
ACAGACGAAGGAGCCGCAAAGAAGTTATTAAGGGATCAATAATCCCACAATATAAATATCTCTCACTTATTTAAA	0.208	0.192	–
ACAGACGAAGGAGCCGCAAAGAAGTTATTAAGGGATCAATAATCCCTAAATATAAATATCTCTCACTTATTTAAA	0.657	0.551	–
ACAGACGAAGGAGCCGCAAAGAAGTTATTAAGGGATCAATAATCCCTCAAAATAAATATCTCTCACTTATTTAAA	0.315	0.214	–
ACAGACGAAGGAGCCGCAAAGAAGTTATTAAGGGATCAATAATCCCTCAACATAAATATCTCTCACTTATTTAAA	0.258	–	–
ACAGACGAAGGAGCCGCAAAGAAGTTATTAAGGGATCAATAATCCCTCAATATAAATAACTCTCACTTATTTAAA	0.687	–	–
ACAGACGAAGGAGCCGCAAAGAAGTTATTAAGGGATCAATAATCCCTCAATATAAATACCTCTCACTTATTTAAA	0.36	0.479	–
ACAGACGAAGGAGCCGCAAAGAAGTTATTAAGGGATCAATAATCCCTCAATATAAATATCTCTCACTTATTTAAA	0.878	0.832	0.996
ACAGACGAAGGAGCCGCAAAGAAGTTATTAAGGGATCAATAATCCCTCAATATAAATCTCTCTCACTTATTTAAA	0.706	–	–
ACAGACGAAGGAGCCGCAAAGAAGTTATTAAGGGATCAATAATCCCTCAATATAAATTTCTCTCACTTATTTAAA	0.645	–	–
ACAGACGAAGGAGCCGCAAAGAAGTTATTAAGGGATCAATAATCCCTCAATATAATTATCTCTCACTTATTTAAA	–	0.468	–
ACAGACGAAGGAGCCGCAAAGAAGTTATTAAGGGATCAATAATCCCTCAATATACATATCTCTCACTTATTTAAA	0.736	–	–
ACAGACGAAGGAGCCGCAAAGAAGTTATTAAGGGATCAATAATCCCTCAATATAGATATCTCTCACTTATTTAAA	–	0.534	–
ACAGACGAAGGAGCCGCAAAGAAGTTATTAAGGGATCAATAATCCCTCAATTTAAATATCTCTCACTTATTTAAA	–	0.197	–
ACAGACGAAGGAGCCGCAAAGAAGTTATTAAGGGATCAATAATCCCTCACTATAAATATCTCTCACTTATTTAAA	0.224	–	–
ACAGACGAAGGAGCCGCAAAGAAGTTATTAAGGGATCAATAATCCCTCATTATAAATATCTCTCACTTATTTAAA	0.213	–	–
ACAGACGAAGGAGCCGCAAAGAAGTTATTAAGGGATCAATAATCCCTGAATATAAATATCTCTCACTTATTTAAA	0.61	0.512	–
ACAGACGAAGGAGCCGCAAAGAAGTTATTAAGGGATCAATAATCCCTTAATATAAATATCTCTCACTTATTTAAA	0.486	1.02	–
ACAGACGAAGGAGCCGCAAAGAAGTTATTAAGGGATCAATAATCCTTCAATATAAATATCTCTCACTTATTTAAA	0.353	–	–
ACAGACGAAGGAGCCGCAAAGAAGTTATTAAGGGATCAATAATCGCTCAATATAAATATCTCTCACTTATTTAAA	0.0655	–	–

Sequence	cleaved RNA product abundance [1]	cleaved RNA product abundance [2]	cleaved RNA product abundance (experiment (reporter, strain, medium): exp 6: tetM reporter, strain 168)
ACAGACGAAGGAGCCGCAAAGAAGTTATTAAGGGATCAATAATCTATCAATATAAATATCTCTCACTTATTTAAA	0.209	–	–
ACAGACGAAGGAGCCGCAAAGAAGTTATTAAGGGATCAATAATCTCTCAATATAAATATCTCTCACTTATTTAAA	0.342	0.312	–
ACAGACGAAGGAGCCGCAAAGAAGTTATTAAGGGATCAATAATGCCTCAATATAAATATCTCTCACTTATTTAAA	0.138	0.0953	–
ACAGACGAAGGAGCCGCAAAGAAGTTATTAAGGGATCAATAATTCCTCAATATAAATATCTCTCACTTATTTAAA	0.22	–	–
ACAGACGAAGGAGCCGCAAAGAAGTTATTAAGGGATCAATACTCCCTCAATATAAATATCTCTCACTTATTTAAA	0.579	–	–
ACAGACGAAGGAGCCGCAAAGAAGTTATTAAGGGATCAATAGTCCCTCAATATAAATATCTCTCACTTATTTAAA	0.828	–	–
ACAGACGAAGGAGCCGCAAAGAAGTTATTAAGGGATCAATATTCCCTCAATATAAATATCTCTCACTTATTTAAA	–	0.709	–
ACAGACGAAGGAGCCGCAAAGAAGTTATTAAGGGATCAATGATCCCTCAATATAAATATCTCTCACTTATTTAAA	1.15	–	–
ACAGACGAAGGAGCCGCAAAGAAGTTATTAAGGGATCAATTATCCCTCAATATAAATATCTCTCACTTATTTAAA	1.23	–	–
ACAGACGAAGGAGCCGCAAAGAAGTTATTAAGGGATCACTAATCCCTCAATATAAATATCTCTCACTTATTTAAA	1.19	–	–
ACAGACGAAGGAGCCGCAAAGAAGTTATTAAGGGATCATTAATCCCTCAATATAAATATCTCTCACTTATTTAAA	1.08	–	–
ACAGACGAAGGAGCCGCAAAGAAGTTATTAAGGGATCCATAATCCCTCAATATAAATATCTCTCACTTATTTAAA	0.481	–	–
ACAGACGAAGGAGCCGCAAAGAAGTTATTAAGGGATCGATAATCCCTCAATATAAATATCTCTCACTTATTTAAA	0.722	0.652	–
ACAGACGAAGGAGCCGCAAAGAAGTTATTAAGGGATCTATAATCCCTCAATATAAATATCTCTCACTTATTTAAA	0.87	–	–
ACAGACGAAGGAGCCGCAAAGAAGTTATTAAGGGATGAAAAAACCCTCAATATAAATATCTCTCACTTATTTAAA	0.642	0.411	–
ACAGACGAAGGAGCCGCAAAGAAGTTATTAAGGGATGAAAAACCCCTCAATATAAATATCTCTCACTTATTTAAA	0.485	0.477	–
ACAGACGAAGGAGCCGCAAAGAAGTTATTAAGGGATGAAAAATACCTCAATATAAATATCTCTCACTTATTTAAA	0.169	0.114	–
ACAGACGAAGGAGCCGCAAAGAAGTTATTAAGGGATGAAAAATCACTCAATATAAATATCTCTCACTTATTTAAA	0.101	0.113	–
ACAGACGAAGGAGCCGCAAAGAAGTTATTAAGGGATGAAAAATCCATCAATATAAATATCTCTCACTTATTTAAA	0.223	0.141	–
